Here are results for seven molecules from patent US20160058881A1, “PRODRUGS WITH PROLONGED ACTION” (INDIANA UNIVERSITY RESEARCH AND TECHNOLOGY CORPORATION, priority 2013, published 2016).

Data set [1] deals with T1, GLP-1 receptor (Homo sapiens, UniProt P43220). In words: cell-based or functional assay.
Target sequence in this assay (P43220 24-463 limits assumed): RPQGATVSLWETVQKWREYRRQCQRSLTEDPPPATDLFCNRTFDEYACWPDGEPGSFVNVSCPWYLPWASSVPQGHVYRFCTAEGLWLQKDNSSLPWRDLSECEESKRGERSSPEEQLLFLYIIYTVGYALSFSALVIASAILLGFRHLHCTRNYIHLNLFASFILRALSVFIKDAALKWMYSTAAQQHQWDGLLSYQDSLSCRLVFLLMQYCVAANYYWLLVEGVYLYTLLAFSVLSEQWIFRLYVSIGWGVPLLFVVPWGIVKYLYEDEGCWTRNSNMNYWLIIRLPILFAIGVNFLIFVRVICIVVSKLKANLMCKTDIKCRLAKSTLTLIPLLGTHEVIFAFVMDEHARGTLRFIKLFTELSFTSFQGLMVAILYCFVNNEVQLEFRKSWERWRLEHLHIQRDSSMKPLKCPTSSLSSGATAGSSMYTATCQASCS
Data set [2] deals with glucagon receptor (UniProt P47871). In words: cell-based or functional assay.
Data set [3] shares this target. The data set is described as follows: cell-based or functional assay. This is another data set of the same source.
Data set [4] has as its target T1, GLP-1 receptor. The data set is described as follows: GLP-receptor luciferase bioassay of samples incubated in 20% human plasma (restored activity). As to conditions: 37° C., 0 to 5 d. The class given is cell-based. How it is done:
To explore the possible formation of DKP and simultaneous regeneration of the parent drug, the above-mentioned peptides were incubated in 20% human plasma at 37° C. for approximately 5 days. Samples were collected at different time points (0, 1, 2, and 5 days).
Target sequence in this assay (P43220 24-463): as the sequence (P43220 24-463 limits assumed) above

Data set [5] deals with diet induced obesity (DIO) mice. The data set is described as follows: In vivo effects in DIO mice, single injection (Example 4). As to conditions: single s.c. injection, lower dose (10 nmol/kg), Day 0-5. On the set-up: species or system mice (strain: C57B16). How it is done: The Peptide D prodrug described in Example 3 was tested for its in vivo effects in diet induced obesity (DIO) mice (strain: C57B16). Nine groups of eight mice (with an initial average body weight of 50 g) were subcutaneously injected with vehicle only or 10 nmol/kg or 50 nmol/kg of a Peptide D acylated prodrug of Example 3, the parent peptide (i.e., Peptide D lacking an acylated dipeptide prodrug moiety), Peptide D with an acylated lysine residue linked directly the 4-amino phenylalanine at position 10, or the following peptide: YAib[…](γEγE-C16)[…]ib[…] (SEQ ID NO: 3082) (Peptide F). The mice were 6 months old and had been on a high fat diet for approximately 2 months. Body weight was monitored for a week following injection and was measured on Day 0, 1, 2, and 5, wherein Day 0 was the day of injection (FIG. 2).

The test system is the same in data set [6]. In words: In vivo effects of acyl chain length variants in DIO mice, single injection (Example 5). Also on record: species or system mice (strain: C57B16). The settings on record: single s.c. injection, 10 nmol/kg, Day 0-7. The protocol: The Peptide D variants described above were also tested for their in vivo effects in diet induced obesity (DIO) mice (strain: C57B16). Nine groups of eight mice (with an initial average body weight of 50 g) were subcutaneously injected with vehicle only, or 10 nmol/kg of a Peptide D with C18 acylation via the dipeptide prodrug moiety (as described in Example 3), the parent peptide (i.e., Peptide D lacking acylation and lacking a dipeptide prodrug moiety), Peptide D with a C18 acyl group linked directly to the 4-amino phenylalanine at position 10, a Peptide D with C20 acylation via the dipeptide prodrug moiety, Peptide D with a C20 acyl group linked directly to the 4-amino phenylalanine at position 10, a Peptide D with C22 acylation via the dipeptide prodrug moiety, and Peptide D with a C22 acyl group linked directly to the 4-amino phenylalanine at position 10. The mice were 6 months old and had been on a high fat diet for approximately 2 months. Body weight was monitored for a week following injection and was measured on Day 0, 1, 2, 5, and 7 wherein Day 0 was the day of injection (FIG. 3A, 3B).

Data set [7] has the same test system. The data set is described as follows: In vivo effects of daily prodrug injection in DIO mice (Example 6). Also on record: species or system mice (strain: C57B16). As to conditions: s.c. daily for 5 days, 10 nmol/kg, after last injection on day 4 to day 7. How it is done:
C22 acylated versions of Peptide D were also tested for their in vivo effects in diet induced obesity (DIO) mice (strain: C57B16) following daily administrations. Nine groups of eight mice (with an initial average body weight of 65 g) were subcutaneously injected daily for 5 days with vehicle only or 3 nmol/kg or 10 nmol/kg of Peptide D (parent peptide), a Peptide D with C22 acylation via the prodrug dipeptide moiety and Peptide D with a C22 acyl group linked directly to the 4-amino phenylalanine at position 10. The mice were 11 months old and had been on a high fat diet for approximately 2 months. Body weight was monitored for a week following injection and was measured on Day 0, 1, 2, 3, 4 and 7, wherein Day 0 was the day of injection (FIG. 4A, 4B).

Data set [8] deals with T1, GLP-1 receptor. In words: cell-based or functional assay. The source holds these as a separate data set.
Target sequence in this assay (P43220 24-463 limits assumed): as above
The format of data set [9] is physicochemical. The settings on record: buffer. The protocol:
Preliminary analyses were performed with these crude peptides for an approximation of their relative conversion rates in Phosphate Buffered Saline (PBS) buffer (pH, 7.2) using high performance liquid chromatography (HPLC) and MALDI analysis. The crude peptide samples were dissolved in the PBS buffer at a concentration of 1 mg/mL. […] Aliquots of 100 μL were drawn out at various time intervals, cooled to room temperature and analyzed by HPLC. […] The peptides described above were incubated in PBS buffer or serum at 37° C. for up to 8 days. Samples were collected at different time points for PBS and plasma and half-life was determined. […] The peptides described above were incubated in PBS buffer or serum at 37° C. for up to 8 days. Samples were collected at different time points for PBS and plasma and half-life was determined. […] The shorter half-life seen when the acylated dipeptide was linked to […] might be due to a conformational change that facilitates cleavage when bound to plasma or alternatively to reduced detection of the acylated form when bound to plasma.

Data set [10] is classed as in vitro ADME. How it is done:
The peptides described above were incubated in PBS buffer or serum at 37° C. for up to 8 days. Samples were collected at different time points for PBS and plasma and half-life was determined. […] The peptides described above were incubated in PBS buffer or serum at 37° C. for up to 8 days. Samples were collected at different time points for PBS and plasma and half-life was determined. […] The shorter half-life seen when the acylated dipeptide was linked to […] might be due to a conformational change that facilitates cleavage when bound to plasma or alternatively to reduced detection of the acylated form when bound to plasma.

The target of data set [11] is T2, glucagon receptor (UniProt P47871 26-477, limits assumed). In words: cell-based or functional assay.
The target in data set [12] is T3, GLP-1 receptor (UniProt P43220 24-463, limits assumed). In words: cell-based or functional assay.
For data set [13], the target named is T2, glucagon receptor. In words: cell-based or functional assay. This is another data set of the same source.
Data set [14] concerns the target T3, GLP-1 receptor. In words: cell-based or functional assay. This is another data set of the same source.
Another data set concerns the target T4, GIP receptor (UniProt P48546 22-466).
T4 sequence (looked up): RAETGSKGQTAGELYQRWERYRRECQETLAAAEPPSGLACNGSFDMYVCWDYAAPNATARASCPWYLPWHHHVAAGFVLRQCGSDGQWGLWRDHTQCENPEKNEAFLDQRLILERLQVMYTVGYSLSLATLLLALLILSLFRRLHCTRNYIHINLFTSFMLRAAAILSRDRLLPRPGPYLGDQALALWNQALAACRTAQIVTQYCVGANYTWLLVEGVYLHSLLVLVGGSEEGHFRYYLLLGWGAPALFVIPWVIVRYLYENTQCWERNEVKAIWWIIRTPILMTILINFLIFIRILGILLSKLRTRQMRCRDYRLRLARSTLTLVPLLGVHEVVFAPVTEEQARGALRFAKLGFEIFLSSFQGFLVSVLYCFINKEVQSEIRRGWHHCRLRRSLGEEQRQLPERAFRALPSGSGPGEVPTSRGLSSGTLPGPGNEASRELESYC
The data set is described as follows: cell-based or functional assay.

Data set [15] deals with T3, GLP-1 receptor. In words: cell-based or functional assay. The source holds these as a separate data set.

Where two headings read alike, the source gives them in different places. Positions of bridges follow the written chain, without caps; N, C: chain ends. Non-standard residues stand in square brackets, D forms with d. Residues, ends and D or L forms follow the SMILES beside them. Groups on a side chain read outwards from the residue. No end group written: not given here. *: point of attachment. Docosanoyl = CCCCCCCCCCCCCCCCCCCCCC(=O)*; Phe(4-NH2) = Nc1ccc(C[C@H](N)C(=O)O)cc1; PhLac = O=C(O)[C@@H](O)Cc1ccccc1; Aib = CC(C)(N)C(=O)O; Sar = CNCC(=O)O

Sequence of glucagon receptor (UniProt P47871) (P47871 26-477 limits assumed): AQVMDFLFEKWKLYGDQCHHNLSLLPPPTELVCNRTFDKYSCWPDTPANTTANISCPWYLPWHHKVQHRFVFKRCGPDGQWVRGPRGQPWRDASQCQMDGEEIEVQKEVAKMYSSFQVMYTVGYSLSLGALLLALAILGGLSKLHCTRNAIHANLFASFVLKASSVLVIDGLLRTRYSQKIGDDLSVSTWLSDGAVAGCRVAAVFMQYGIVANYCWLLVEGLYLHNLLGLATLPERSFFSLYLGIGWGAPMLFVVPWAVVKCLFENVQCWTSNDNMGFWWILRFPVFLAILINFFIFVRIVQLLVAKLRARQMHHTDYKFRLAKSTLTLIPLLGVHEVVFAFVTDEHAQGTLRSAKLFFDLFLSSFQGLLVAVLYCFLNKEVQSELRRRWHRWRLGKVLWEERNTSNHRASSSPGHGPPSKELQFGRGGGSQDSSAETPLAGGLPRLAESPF
T2 sequence (P47871 26-477 limits assumed): as above

As for “E9, K12E16(lactam) glucagon(6-39) Cex peptide (Table 1 peptide 2)”, the GLP-1 EC50 with GLP-1 receptor [1] is 63 nM. Further, the Glu IC50 in the data set with glucagon receptor [2] worked out at 2010 nM. In addition, the Glucagon IC50 in the data set with glucagon receptor [3] worked out at 2010 nM.

In the case of “FAibEGTFTSDF(NH2)SIYLDKQAAAibEFVNWLLAGGPSSGAPPPS (F[Aib]EGTFTSD[Phe(4-NH2)]SIYLDKQAA[Aib]EFVNWLLAGGPSSGAPPPS-NH2; N-terminus assumed; SMILES CC[C@H](C)[C@H](NC(=O)[C@H](CO)NC(=O)[C@H](Cc1ccc(N)cc1)NC(=O)[C@H](CC(=O)O)NC(=O)[C@H](CO)NC(=O)[C@@H](NC(=O)[C@H](Cc1ccccc1)NC(=O)[C@@H](NC(=O)CNC(=O)[C@H](CCC(=O)O)NC(=O)C(C)(C)NC(=O)[C@@H](N)Cc1ccccc1)[C@@H](C)O)[C@@H](C)O)C(=O)N[C@@H](Cc1ccc(O)cc1)C(=O)N[C@@H](CC(C)C)C(=O)N[C@@H](CC(=O)O)C(=O)N[C@@H](CCCCN)C(=O)N[C@@H](CCC(N)=O)C(=O)N[C@@H](C)C(=O)N[C@@H](C)C(=O)NC(C)(C)C(=O)N[C@@H](CCC(=O)O)C(=O)N[C@@H](Cc1ccccc1)C(=O)N[C@H](C(=O)N[C@@H](CC(N)=O)C(=O)N[C@@H](Cc1c[nH]c2ccccc12)C(=O)N[C@@H](CC(C)C)C(=O)N[C@@H](CC(C)C)C(=O)N[C@@H](C)C(=O)NCC(=O)NCC(=O)N1CCC[C@H]1C(=O)N[C@@H](CO)C(=O)N[C@@H](CO)C(=O)NCC(=O)N[C@@H](C)C(=O)N1CCC[C@H]1C(=O)N1CCC[C@H]1C(=O)N1CCC[C@H]1C(=O)N[C@@H](CO)C(N)=O)C(C)C) [Parent peptide (Peptide D), Peptide D lacking acylation and lacking a dipeptide prodrug moiety]”, in the data set with GLP-1 receptor [4], the “Change of activity over the time points in plasma” value was “No change”. In addition, the Body weight result was “declined through day 1, but returned close to the starting weight by day 5” in data set [5]; “declined through day 1, but returned toward the starting weight by day 7” in data set [6]; “began gaining weight” in data set [7].

In the case of “D9, K12E16(Lactam) glucagon(6-39) Cex peptide (Table 1 peptide 4)”, the GLP-1 EC50 with GLP-1 receptor [1] was found to be 119 nM; with GLP-1 receptor [8], 18 nM. For the same molecule, the Glu IC50 with glucagon receptor [2] turned out to be 828 nM. In the data set with glucagon receptor [3], this molecule came in with a Glucagon IC50 of 828 nM.

Consider `CC[C@H](C)[C@H](NC(=O)[C@H](CO)NC(=O)[C@H](Cc1ccc(N)cc1)NC(=O)[C@H](CC(=O)O)NC(=O)[C@H](CO)NC(=O)[C@@H](NC(=O)[C@H](Cc1ccccc1)NC(=O)[C@@H](NC(=O)CNC(=O)[C@H](CCC(=O)O)NC(=O)C(C)(C)NC(=O)[C@@H](N)Cc1ccccc1)[C@@H](C)O)[C@@H](C)O)C(=O)N[C@@H](Cc1ccc(O)cc1)C(=O)N[C@@H](CC(C)C)C(=O)N[C@@H](CC(=O)O)C(=O)N[C@@H](CCCCN)C(=O)N[C@@H](CCC(N)=O)C(=O)N[C@@H](C)C(=O)N[C@@H](C)C(=O)NC(C)(C)C(=O)N[C@@H](CCC(=O)O)C(=O)N[C@@H](Cc1ccccc1)C(=O)N[C@H](C(=O)N[C@@H](CC(N)=O)C(=O)N[C@@H](Cc1c[nH]c2ccccc12)C(=O)N[C@@H](CC(C)C)C(=O)N[C@@H](CC(C)C)C(=O)N[C@@H](C)C(=O)NCC(=O)NCC(=O)N1CCC[C@H]1C(=O)N[C@@H](CO)C(=O)N[C@@H](CO)C(=O)NCC(=O)N[C@@H](C)C(=O)N1CCC[C@H]1C(=O)N1CCC[C@H]1C(=O)N1CCC[C@H]1C(=O)N[C@@H](CO)C(N)=O)C(C)C` [Peptide D] (H-F[Aib]EGTFTSD[Phe(4-NH2)]SIYLDKQAA[Aib]EFVNWLLAGGPSSGAPPPS-NH2; N-terminus and C-terminus assumed), for which the half-life in data set [9] and in [10] was about 24 h throughout. Moreover, the Body weight entry is reported as “decline in weight through day 2 before weight began to increase slightly” in data set [5] and “caused the most weight loss” in data set [6].

In the case of [PhLac]TSDYSKYLDERRAKDFVQWLMDT (lactam 11-15) [[PLA6, D9, E16K20(lactam), D28]G(6-29) (Table 2 peptide 1)], the “Glucagon IC50” value with glucagon receptor [11] was 10 to 30 nM; with glucagon receptor [13] it was 6 nM. Further, in the data set with GLP-1 receptor [12], the “GLP-1 EC50” value was 4 nM.

On to Y[Aib]EGTFTSDYSIYLDKQAA[Aib]EFVNWLLAGGPSSGAPPPSK([Sar-dK-Docosanoyl])-NH2 [Peptide H with C22-acylated (d)Lysine-sarcosine dipeptide on Lysine at position 40], for which, in the data set with GLP-1 receptor [14], the “EC50-GLP, relative activity to GLP-1 standard” value stood at 37.1%. Further, in the data set with GIP receptor, the “EC50-GIP, relative activity to GIP standard” value was 81.6%.

In the case of [PhLac]TSDYSKYLDERRAQDFVQWLMDT (lactam 7-11; not fully specified) [[PLA6, D9, K12E16(Lactam), D28]G(6-29) (Table 2 peptide 2)], the “GLP-1 EC50” value with GLP-1 receptor [15] turned out to be 177 nM; in the data set with GLP-1 receptor [12], 21 nM. Besides, the “Glucagon IC50” value with glucagon receptor [11] was determined as 63 nM; with glucagon receptor [13] it was 13 nM.
